Where two headings read alike, the source gives them in different places.
Experiments:
Assay in all cases: cell-based or functional assay
[1] = biological target: adenylyl cyclase (AC) in rat spinal cord lysates / membranes (major isoforms AC type 5 and 6)
[2] = biological target: adenylyl cyclase (AC) in rat dorsal root ganglia (DRG) lysates (predominant isoforms AC type 4 and 6)
[3] = biological target: adenylyl cyclase (AC) in rat spinal cord lysates / membranes (major isoforms AC type 5 and 6); remark: listed apart in the source

inhibition of Gαs-stimulated AC activity, spinal cord lysates of control animals, 30 nM PAM (% inhibition at 30 nM) [1]: 50 | inhibition of Gαs-stimulated AC activity, DRG lysates, 30 nM PAM (% inhibition at 30 nM) [2]: 32 | inhibition of Gαs-stimulated AC activity, spinal cord lysates from animals treated 1 hour with formalin, 30 nM PAM (% inhibition at 30 nM) [3]: 25 | inhibition of Gαs-stimulated AC activity, spinal cord lysates from rats 96 hours after zymosan injection, 30 nM PAM (% inhibition at 30 nM) [3]: 70 | inhibition of Gαs-stimulated AC activity, spinal cord lysates of control animals, 30 nM PAM (% inhibition at 30 nM) [3]: 49 | inhibition of Gαs-stimulated AC activity, spinal cord preparations of zymosan-treated animals [3]: 75 % inhibition
Substance: PAM (Protein Associated with Myc), full length, purified from HeLa cells (from UniProt O75592 1-4678)
